Several values for one entry are separate records, joined by “and”; a condition that tells them apart may be missing. Equal entries are not always repeated.
Columns and labels:
[1] = target: the molecule itself; assay: native gel or EMSA; clear native electrophoresis (CN-PAGE), normal polarity (cathode-anode), 4-10% gradient gels, HEPES/imidazole pH 7.0 (40.0/15.3, 88.9/34.0 or 133.2/50 mM in the gel), 150 V, 4 °C, 5 h, ten micrograms of purified enzyme; masses from ferritin and albumin markers, means of the gel conditions; also after 10 mM DTT; dimers to higher aggregates
[2] = target: the molecule itself; assay: native gel or EMSA; clear native electrophoresis (CN-PAGE), inverse polarity (anode-cathode), 4-10% gradient gels, HEPES/imidazole pH 7.0, 150 V, 4 °C, 5 h, ten micrograms of purified enzyme; no mass markers; dimers to higher aggregates

Protein	stoichiometry N [1]	binding result [2]
Thermus thermophilus triosephosphate isomerase (enzyme, UniProt Q5SJR1 1-250, looked up, gene cloned into pET-3aHIS; also called TtTIM; Tt; source: E. coli Bl21 (DE3)-p-Lys S, purified (ammonium sulphate, Butyl-650M, Source 15Q)) MRRVLVAGNWKMHKTPSEARVWFAELKRLLPPLQSEAAVLPAFPILPVAKEVLAETQVGYGAQDVSAHKEGAYTGEVSARMLSDLGCRYAIVGHSERRRYHGETDALVAEKAKRLLEEGITPILCVGEPLEVREKGEAVPYTLRQLRGSLEGVEPPGPEALVIAYEPVWAIGTGKNATPEDAEAMHQAIRKALSERYGEAFASRVRILYGGSVNPKNFADLLSMPNVDGGLVGGASLELESFLALLRIAG	9 dimers in the aggregate	–
Leishmania mexicana triosephosphate isomerase (enzyme, UniProt P48499 1-251, looked up, triosephosphate isomerase (TIM), Leishmania mexicana; gene cloned into pET-3aHIS; also called LmTIM; Lm; source: E. coli Bl21 (DE3)-p-Lys S, purified (ammonium sulphate, Butyl-650M, Source 15Q)) MSAKPQPIAAANWKCNGTTASIEKLVQVFNEHTISHDVQCVVAPTFVHIPLVQAKLRNPKYVISAENAIAKSGAFTGEVSMPILKDIGVHWVILGHSERRTYYGETDEIVAQKVSEACKQGFMVIACIGETLQQREANQTAKVVLSQTSAIAAKLTKDAWNQVVLAYEPVWAIGTGKVATPEQAQEVHLLLRKWVSENIGTDVAAKLRILYGGSVNAANAATLYAKPDINGFLVGGASLKPEFRDIIDATR	–	binds
Taenia solium triosephosphate isomerase (enzyme, UniProt Q9GTX8 1-250, looked up, triosephosphate isomerase (TIM), Taenia solium; gene cloned into pRSET; also called TsTIM; Ts; source: E. coli Bl21 (DE3)-p-Lys S, purified (ammonium sulphate, Butyl-650M, Source 15Q)) MTRKLFVGGNWKMNGSYSHINTFFDTLQKADTDPNADIVIGVPACYLKYAQDKAPKGIKIAAENCYKVGSGAFTGEISTEMIKDCGCEWVILGHSERRHIFGESNELIGEKVKHALDSGLNVIPCIGELLSEREAGKTNDVCFAQMDAIAKNVPSKEAWDKVVIAYEPVWAIGTGKTATPAQAQEVHKVVRDWIRKHVDAGIADKVRILYGGSVTASNAKDLGTQPDVDGFLVGGASLKPDFITIINARR	11 dimers in the aggregate and 8.5 dimers in the aggregate	–
Trypanosoma cruzi triosephosphate isomerase (enzyme, UniProt P52270 1-251, looked up, triosephosphate isomerase (TIM), Trypanosoma cruzi; gene cloned into pET-3a; the aggregates are counted in dimers; also called TcTIM; Tc; source: E. coli Bl21 (DE3)-p-Lys S, purified (SP Sepharose fast flow, Butyl toyopearl, ammonium sulphate precipitation)) MASKPQPIAAANWKCNGSESLLVPLIETLNAATFDHDVQCVVAPTFLHIPMTKARLTNPKFQIAAQNAITRSGAFTGEVSLQILKDYGISWVVLGHSERRLYYGETNEIVAEKVAQACAAGFHVIVCVGETNEEREAGRTAAVVLTQLAAVAQKLSKEAWSRVVIAYEPVWAIGTGKVATPQQAQEVHELLRRWVRSKLGTDIAAQLRILYGGSVTAKNARTLYQMRDINGFLVGGASLKPEFVEIIEATK	–	binds

Reference: paper PMC6987189, “Native aggregation is a common feature among triosephosphate isomerases of different species” (Scientific Reports, 2020)
